Article PMC11623929

Target: WDR5-Luc-FKBP12

## VHL-FRB (from UniProt P42345 2019-2112)
  decrease of luciferase activity of the WDR5 fusion in HEK293 cells, rapamycin overnight, 10- or 100-fold excess of the VHL-FRB plasmid (bridged by rapamycin): 50.2%
